Experimental findings from publication PMC3715500 are described below.

For this assay, the target named is Rac-GFP (UniProt P63000). The experiment in a line: FRET or BRET; FLIM-FRET (donor lifetime, time-gated fast-FLIM prototype, five gates of 2.25 ns, up to 1 FLIM image per s) in living 3T3 cells co-transfected with donor Rac-GFP and acceptor PBD-mCherry or mCherry alone; analysed by mfD, polar approach and moments method. (Bioluminescence resonance energy transfer reports proximity on the nanometre scale.)

PBD-mCherry (domain or fragment), sequence (Q13153 2-545): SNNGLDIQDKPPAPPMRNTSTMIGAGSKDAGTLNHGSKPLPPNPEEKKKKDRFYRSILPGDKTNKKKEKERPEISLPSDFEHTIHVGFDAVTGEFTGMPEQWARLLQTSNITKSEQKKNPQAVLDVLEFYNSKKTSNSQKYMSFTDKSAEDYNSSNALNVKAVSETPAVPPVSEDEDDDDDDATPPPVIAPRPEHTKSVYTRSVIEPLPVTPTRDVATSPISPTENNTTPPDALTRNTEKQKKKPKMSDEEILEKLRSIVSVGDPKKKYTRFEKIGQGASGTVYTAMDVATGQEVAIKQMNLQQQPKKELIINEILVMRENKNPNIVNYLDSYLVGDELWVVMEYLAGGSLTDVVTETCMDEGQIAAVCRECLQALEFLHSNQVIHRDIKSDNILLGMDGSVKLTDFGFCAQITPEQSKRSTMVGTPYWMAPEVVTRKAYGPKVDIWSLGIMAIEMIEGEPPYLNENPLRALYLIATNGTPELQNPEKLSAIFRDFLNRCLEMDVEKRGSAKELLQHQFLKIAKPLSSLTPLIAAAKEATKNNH

Consider PBD-mCherry (domain or fragment), for which the mean donor lifetime <τ> (population of cells, n = 10) came out at 2.37 ns; the mean donor lifetime <τ> (single cell, corrected) was found to be 2.21; the minimal fraction of interacting donor mfD (representative cell) is 0.19; the non-corrected average donor lifetime (representative cell) turned out to be 2.3 ns.
